The source of these data is the RNAGym collection of RNA variant scans (doi:10.7554/elife.90254).

The chains are these.
B1: OR4K15 (parent)
chain: GUUAACGGUCAUAGGCCAUGGAAACUAGGAGCACCAUUUCGCUGCCAGUGAAGAAAUGAACAAAGAAAAUCUGGGCCAGGCAGGCAUCAAAAGAAAUAGUCUUGCGCUCAACCAGAAAGUCUGUAAUCAUUUUAAGGGUA

In the data set the parent is B1. In words: self-cleavage, relative activity (ratio to wild type); higher = more cleavage; in vitro, sequencing; the parent is a self-cleaving ribozyme.
Turning to U26C A117U, the self-cleavage was determined as 0.5. The figure for U49C U100G is 1.72; for A36U U103C it is 1.16; for A23C A51U it is 1.46. In the case of A95G A98U, the self-cleavage was 1.77.

Regarding U57C U127C, the self-cleavage is 0.66. For U57C U127A, the self-cleavage amounted to 1.19. For the variant U87C A98G, the self-cleavage amounted to 0.74.

G73A A89C: the self-cleavage was 0.14.

Consider G28U A30G, for which the self-cleavage is 1.48. As for A59U U130C, the figure is 1.05; as for A89U G119A, 2.37. In the case of A13U A54G, the self-cleavage was 0.73. For the variant G80U U120C, the self-cleavage is 0.08. For the variant A30G G74C, the self-cleavage turned out to be 0.34. As for U70A A92G, the figure is 0.4. With A66G G83A, the self-cleavage was determined as 1.56.

Turning to A27G A116U, the self-cleavage came to 0.05. With A23U A95G, the self-cleavage was determined as 1.75.

Regarding U70C A82G, the self-cleavage was determined as 0.31. In the case of U9C G48A, the self-cleavage came to 0.64. C107U A111G: the self-cleavage turned out to be 0. In the case of A13G A89U, the self-cleavage turned out to be 1.09. As for A18U U19A, the figure is 1.53; as for U72A A111G, 0.02; as for A67G U70C, 1.05. A111G U120A: the self-cleavage is 0.

On to A82G A116U, for which the self-cleavage came to 0.07. As to A89G A111G, the self-cleavage turned out to be 0.02. Consider U19A U97G, for which the self-cleavage was 1.84. Take A54U A117G: the self-cleavage amounted to 1.63. G20U A78G: the self-cleavage stood at 0.26.

Take A5G A18U: the self-cleavage was found to be 1.12.

Regarding U39C G58A, the self-cleavage was 0.67. Regarding U9A U39C, the self-cleavage amounted to 0.86.

Consider U130C U133A, for which the self-cleavage came out at 2.08.

Regarding A64U, the self-cleavage worked out at 1.23. In the case of A23G A51G, the self-cleavage came to 1.33. For G8A A59G, the self-cleavage is 1.47. As to A96G U132C, the self-cleavage is 1.21. On to A86G A91G, for which the self-cleavage was determined as 0.16. In the case of U108A A129G, the self-cleavage is 0. C17A A59U: the self-cleavage stood at 1.14. As to A13G U127A, the self-cleavage amounted to 1.91. As for A24G A68C, the figure is 1.49; as for A64G U132A, 1.85. As for A98U U124C, the figure is 2.17.

As for A91C U131A, the self-cleavage is 2.16.

With U37C A69U, the self-cleavage was 1.6. U39C U87A: the self-cleavage was found to be 1.92. As for A86G U132C, the figure is 1.16. With A95G G136A, the self-cleavage was 2. In the case of A24U A59G, the self-cleavage is 1.28.

As to A52U U122C, the self-cleavage came to 0.74. The figure for U49C U127C is 0.94; for A5G U39C it is 1.32; for A91G U124C it is 0.62. The figure for A52U A94U is 1.94; for G79A U108C it is 0.01. With A98G U102A, the self-cleavage was determined as 0.15. On to A56G A90U, for which the self-cleavage is 1.83.

Turning to G75A C81U, the self-cleavage amounted to 0.21. Regarding A55G U108C, the self-cleavage turned out to be 0.01. A13G A135C: the self-cleavage turned out to be 0.49. Turning to G15A U108C, the self-cleavage was determined as 0. As for C17A A78G, the self-cleavage turned out to be 0.1.

For A56U A91G, the self-cleavage is 2.02. Turning to C32U A117U, the self-cleavage came out at 0.3. For U43A A117G, the self-cleavage amounted to 2.17. For A23G A96G, the self-cleavage was found to be 0.92. For U9A U122G, the self-cleavage is 2.09. As for A11U A23U, the self-cleavage is 0.71. With U72C A82G, the self-cleavage is 0.3. Turning to A54U U132C, the self-cleavage is 2.02.

For U26C U124C, the self-cleavage was determined as 1.05.

For A55G A86C, the self-cleavage amounted to 1.66. On to A4C U87C, for which the self-cleavage was 0.81. Take U19C A82G: the self-cleavage came out at 0.61. As for A91U A110U, the figure is 0.82. Consider A30G A47G, for which the self-cleavage was determined as 0.71.

Take G53A A86G: the self-cleavage is 1.83.

With A11G A47U, the self-cleavage is 0.98. Consider A68G U97C, for which the self-cleavage is 1.3. As for A18G A30U, the figure is 1.01; as for C40A U102C, 1.98. Take U70C A135G: the self-cleavage turned out to be 1.14.

For A51C A62G, the self-cleavage turned out to be 0.72.

Take C88A: the self-cleavage came to 1.78.

Consider U37C A126G, for which the self-cleavage is 1.31. In the case of U2C U100A, the self-cleavage worked out at 0.48. As for A4G A60G, the self-cleavage worked out at 1.27. For A23U G123A, the self-cleavage was determined as 1.5. Turning to U43A A62G, the self-cleavage came to 0.93. As to G29A U122C, the self-cleavage is 1.08. The figure for A86U A92G is 1.46; for U43G A89G it is 1.26.

Turning to G21C C61U, the self-cleavage stood at 0.94. For the variant A27G C71A, the self-cleavage is 0.66. With U9C A11C, the self-cleavage was 1.71. For U70A U139C, the self-cleavage was 1.06. Take U2G A94G: the self-cleavage was found to be 0.48.

Consider A56G A82C, for which the self-cleavage worked out at 0.15.

As for A66G A82G, the self-cleavage worked out at 0.26. The figure for A63G A140G is 2.02; for U39C C105U it is 0.24; for G7U U26C it is 2.12. For A63U A90U, the self-cleavage is 1.93. As to U49C U102A, the self-cleavage was found to be 0.53. On to U38C G83U, for which the self-cleavage came to 0.43. As for A64G G74U, the figure is 0.24; as for U70C C101U, 0.12.

Turning to A55U U103C, the self-cleavage came to 0.91. U2C U87A: the self-cleavage was 0.9. Turning to A5U U102A, the self-cleavage is 1.12. For A51G A89C, the self-cleavage came out at 1.6. For the variant A62U A78G, the self-cleavage worked out at 0.28.

Consider A11U C40A, for which the self-cleavage was 1.2. The figure for G79A A98G is 0.03. Turning to A33U A86G, the self-cleavage amounted to 1.33.

Regarding A47G U108A, the self-cleavage was determined as 0.01.

As to U49G G83A, the self-cleavage stood at 0.47. The figure for G58A A62G is 1.01. Turning to A78U U127C, the self-cleavage turned out to be 0.07.

A64G A116G: the self-cleavage amounted to 0.61. For A54G A98G, the self-cleavage came out at 0.33. Regarding A23G A82U, the self-cleavage was found to be 0.2.

As for A23G A82C, the self-cleavage came out at 0.09. As for G8A A117U, the self-cleavage is 1.67. On to U57C A78U, for which the self-cleavage came to 0.26. As for U57C A78G, the self-cleavage is 0.23. Take G7A A86U: the self-cleavage was 1.86. As for A95G U127G, the self-cleavage turned out to be 2.23. For the variant A95U A111G, the self-cleavage stood at 0.05. For the variant U39C U103C, the self-cleavage came out at 0.93. As for G1A A82G, the figure is 1.18; as for U26C U131A, 1.02. For the variant A95G A111C, the self-cleavage amounted to 0.02.

As to C25A A135G, the self-cleavage was determined as 1.61. On to U108A A135U, for which the self-cleavage was 0.02. As to A63G A118C, the self-cleavage came out at 1.42. As for G73A A111G, the self-cleavage was determined as 0.02. As for A36G A129G, the figure is 1.3; as for A111G A125G, 0.01.

Turning to A63G U127G, the self-cleavage is 2.41.

Regarding A59G, the self-cleavage worked out at 1.06. Take A118G U132C: the self-cleavage is 0.18.

For the variant A5G A33U, the self-cleavage was 1.01. Consider U122C A126G, for which the self-cleavage was 0.76. For A59G G115U, the self-cleavage is 0.13. Turning to U3C G7A, the self-cleavage came to 0.99. For the variant A47G A60U, the self-cleavage came out at 1.4. As for A4G G75A, the self-cleavage was found to be 0.33.

Regarding U9A A126G, the self-cleavage turned out to be 0.57. With U49A A59G, the self-cleavage was found to be 1.44. For G14A, the self-cleavage turned out to be 1.24.

Turning to A33G G80A, the self-cleavage was 0.12.

Consider G83C, for which the self-cleavage stood at 0.35.

Consider A116G U122A, for which the self-cleavage came out at 0.5. A47C A56G: the self-cleavage was 1.35.

In the case of U37C A134G, the self-cleavage is 1.32.

Turning to A33C U57A, the self-cleavage stood at 1.1. Turning to U2C G138A, the self-cleavage was 1.1. As for U39A A52U, the figure is 1.65; as for G29A A92G, 1.16; as for U2C G28U, 2.17. As for A24G U127A, the figure is 1.53; as for U72C A94G, 0.07.
